Experimental data: doi:10.1101/2021.10.11.464003

T1: MhAgo_DM (Marinitoga hydrogenitolerans, UniProt A0A1M5A5Z8 1-640, D445A;D515A)
T1 sequence: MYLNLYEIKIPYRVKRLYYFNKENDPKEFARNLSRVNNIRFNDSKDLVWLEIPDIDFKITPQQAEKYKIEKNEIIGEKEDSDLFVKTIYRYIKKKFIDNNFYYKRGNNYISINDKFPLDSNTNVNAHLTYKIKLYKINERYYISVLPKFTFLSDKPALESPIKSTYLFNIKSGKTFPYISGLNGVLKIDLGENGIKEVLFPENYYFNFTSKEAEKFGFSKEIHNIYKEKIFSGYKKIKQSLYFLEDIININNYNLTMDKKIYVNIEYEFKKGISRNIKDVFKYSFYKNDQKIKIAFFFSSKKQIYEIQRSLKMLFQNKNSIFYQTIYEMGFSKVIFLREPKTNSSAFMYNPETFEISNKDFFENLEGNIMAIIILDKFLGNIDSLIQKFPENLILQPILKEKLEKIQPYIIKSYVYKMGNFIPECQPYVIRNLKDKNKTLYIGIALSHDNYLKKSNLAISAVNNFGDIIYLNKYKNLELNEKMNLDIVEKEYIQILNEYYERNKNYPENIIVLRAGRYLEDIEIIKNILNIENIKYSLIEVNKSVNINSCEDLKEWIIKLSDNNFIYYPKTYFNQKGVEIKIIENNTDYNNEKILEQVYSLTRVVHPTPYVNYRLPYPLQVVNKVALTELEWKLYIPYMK


The binders below were run against T1, MhAgo_DM (assay: EMSA).

| Binder | Kd |
| --- | --- |
| 5'OH-gRNA:tRNA duplex (dsRNA, guide 5'OH) RNA 1: CGAGGUAGUAGGUUGUAU RNA 2: AAACGACGGCCAGUGCCAAGCUUACUAUACAACCUACUACCUCGU | 125 ± 6.83 nM |
| 5'P-gRNA:tRNA duplex (dsRNA, guide 5' phosphate) RNA 1: CGAGGUAGUAGGUUGUAU RNA 2: AAACGACGGCCAGUGCCAAGCUUACUAUACAACCUACUACCUCGU | 232 ± 5.07 nM |
| 5'OH-gDNA:tRNA duplex (DNA:RNA, guide 5'OH) DNA: CGAGGTAGTAGGTTGTAT RNA: AAACGACGGCCAGUGCCAAGCUUACUAUACAACCUACUACCUCGU | 102 ± 1.69 nM |
| 5'P-gDNA:tRNA duplex (DNA:RNA, guide 5' phosphate) DNA: CGAGGTAGTAGGTTGTAT RNA: AAACGACGGCCAGUGCCAAGCUUACUAUACAACCUACUACCUCGU | 140 ± 5.37 nM |
| 5'OH-gDNA:tDNA duplex (dsDNA, guide 5'OH) DNA 1: CGAGGTAGTAGGTTGTAT DNA 2: AAACGACGGCCAGTGCCAAGCTTACTATACAACCTACTACCTCGT | 119 ± 4.8 nM |
| 5'P-gDNA:tDNA duplex (dsDNA, guide 5' phosphate) DNA 1: CGAGGTAGTAGGTTGTAT DNA 2: AAACGACGGCCAGTGCCAAGCTTACTATACAACCTACTACCTCGT | 145 ± 11.5 nM |
| 5'P-gRNA:tDNA duplex (DNA:RNA, guide 5' phosphate) RNA: CGAGGUAGUAGGUUGUAU DNA: AAACGACGGCCAGTGCCAAGCTTACTATACAACCTACTACCTCGT | 148 ± 4.52 nM |
| 5'OH-gRNA:tDNA duplex (DNA:RNA, guide 5'OH) RNA: CGAGGUAGUAGGUUGUAU DNA: AAACGACGGCCAGTGCCAAGCTTACTATACAACCTACTACCTCGT | 121 ± 4.66 nM |
